B1: VH:VL chains; a variant is named by its letters at X, in order (parent)
chain 1: QVQLVQSGAEVKKPGASVKVSCKASGYTFTDYXMHWVRQAPGQGLEWMGXVNPNXXXTTYNQKFEGRVTMTTDTSTSTAYMELRSLRSDDTAVYYCARXNXLDXWGQGTTVTVSS
chain 2: DIQMTQSPSSLSASVGDRVTITCSVSSSVSSIYLHWYQQKPGKAPKLLIYSTSNLASGVPSRFSGSGSGTDFTLTISSLQPEDFATYYCQVYSGYPLTFGGGTKVEIK

The record followed here is the emibetuzumab library of Makowski et al. (2022).

In the data set the parent is B1. Put plainly: yeast display scFab, FACS + sequencing. Summed up:
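Non-specific binding was called from deep sequencing of sorted yeast cells displaying a heavy-chain CDR mutant scFab library. Cells labelled with anti-Myc and biotinylated ovalbumin (260 μg/mL in PBSB, 3 h, room temperature) or soluble membrane proteins (130 μg/mL, 20 min on ice) were FACS-sorted, collecting the top 25% and bottom 10% of binders from two replicates. A sequence was positive when present in ≥3 of 4 pooled positive samples and absent from all negatives, and negative under the converse rule.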
Regarding YRGAGSVD, the non-specific binding call is listed as “binds”. As for FRERGALA, the non-specific binding call is listed as “binds”. On to DRGGDDAD, for which the non-specific binding call was “no binding”. The same measure for DRGGDDAA: “no binding”. As for YRGEAFLY, the non-specific binding call is “binds”.

As to YRERTAAV, the non-specific binding call was “binds”. FRGGGFVV: the non-specific binding call is recorded as “binds”. As to YRGGASGA, the non-specific binding call is on record as “binds”. In the case of FRGEGFSV, the non-specific binding call is “binds”. As to SRGGDDVA, the non-specific binding call is “no binding”. In the case of YRGKDALA, the non-specific binding call is reported as “binds”. The same measure for VRERGAWD: “binds”; for YRGESAWV: “binds”.

In the case of VRERGSLY, the non-specific binding call is given as “binds”. Regarding YRGEGDAV, the non-specific binding call is “no binding”. YRGEGDAA: the non-specific binding call was “no binding”.

For the variant YRERGSSF, the non-specific binding call is recorded as “binds”. Then YRGGGAAF, with “binds”; and VRERGDGS, with “no binding”. On to VRERGDGV, for which the non-specific binding call is “no binding”. Regarding YRGGDSAY, the non-specific binding call is recorded as “no binding”. As to YRGGDSAS, the non-specific binding call is “no binding”. The same measure for DRGGDAVV: “no binding”.

With DRGGDAVA, the non-specific binding call was “no binding”. As for YRGEGAVS, the non-specific binding call was “binds”. Take FRGEAVVY: the non-specific binding call is listed as “binds”. Regarding YRGAGAVY, the non-specific binding call is “binds”. As for YRGAGAVS, the non-specific binding call is listed as “binds”. Take FRGEGAVS: the non-specific binding call is listed as “binds”.

Turning to DRGGDDVV, the non-specific binding call was “no binding”.

On to DRGGDDVD, for which the non-specific binding call is “no binding”. Regarding DRGGDDVY, the non-specific binding call is “no binding”.

With VRGGDDGV, the non-specific binding call is listed as “no binding”. For VRGGDDGS, the non-specific binding call is recorded as “no binding”.

In the case of VRERGVGV, the non-specific binding call was “binds”. With FRGGSSAA, the non-specific binding call is on record as “binds”.

Take VRGGGVGV: the non-specific binding call is on record as “binds”. On to FRGADSGF chain 1 R98K, for which the non-specific binding call is reported as “binds”. Regarding YRGKDAGA, the non-specific binding call is on record as “binds”. Regarding YRGADFGF, the non-specific binding call is “binds”. The same measure for YRGGGALS: “binds”; for VRGGSDVA: “no binding”. Then VRGGSDVD, with “no binding”; and YRGGGVVD, with “binds”; and YRGKDAAY, with “binds”.

Take FRGGASSD: the non-specific binding call is “binds”. As to DRGGGDAS, the non-specific binding call is “no binding”. With VRERGSAV, the non-specific binding call is reported as “binds”.

On to VRERGSAD, for which the non-specific binding call is on record as “binds”. Regarding YRGANSGA, the non-specific binding call is “binds”.

On to YRGGTAAA, for which the non-specific binding call is given as “binds”.

FRGGGSLD: the non-specific binding call is “binds”. Turning to YRGKAAGD, the non-specific binding call was “binds”. As for YRGKAAGV, the non-specific binding call was “binds”.

For YRGGGFAD, the non-specific binding call was “binds”.

Consider FRERGSWV, for which the non-specific binding call is given as “binds”. With FRGESSGA, the non-specific binding call is given as “binds”. With YRGASAAA, the non-specific binding call is recorded as “binds”. Take FRGESSWD: the non-specific binding call was “binds”.

With VRGGGSAA, the non-specific binding call was “binds”.

YRGEGASD: the non-specific binding call is on record as “binds”. Consider SRGGSALA, for which the non-specific binding call is recorded as “no binding”.

DRGGGDGV: the non-specific binding call is “no binding”. Regarding VRGGGAWV, the non-specific binding call is given as “binds”. As to YRGGDYGA, the non-specific binding call was “no binding”. The same measure for VRERSSVD: “binds”. On to YRGAGSLD, for which the non-specific binding call was “binds”. Then FRETDFGA, with “binds”; and YRGGASAA, with “binds”; and VRGGGDWV, with “no binding”. With YRGESAVD, the non-specific binding call is given as “binds”. Regarding FRGKADVD, the non-specific binding call is “binds”. With VRERGDLV, the non-specific binding call is given as “no binding”. As to YRGGGSVF, the non-specific binding call is on record as “binds”. For the variant YRGGGSAA, the non-specific binding call is recorded as “binds”. The same measure for FRGGGSWA: “binds”.

Take FRGESSAD: the non-specific binding call is “binds”. For YREKGSAA, the non-specific binding call is listed as “binds”. In the case of FRGGGAVA, the non-specific binding call was “binds”. For the variant FRGGGAVS, the non-specific binding call is listed as “binds”. The same measure for YRGKASGD: “binds”; for YRGGTSVD: “binds”; for YRERDSAD: “binds”. For DRGGDVSD, the non-specific binding call is given as “binds”. With VRERGASD, the non-specific binding call was “binds”.

Take ARGAGYGS: the non-specific binding call is given as “binds”.

For the variant YRGAGYGS, the non-specific binding call is given as “binds”. On to YRGGSDGS, for which the non-specific binding call was “no binding”. The same measure for YRGGGYGF: “binds”. YRERGAAF: the non-specific binding call is “binds”. Regarding YRERGAAA, the non-specific binding call was “binds”. Regarding YRERGAAV, the non-specific binding call was “binds”.

For YRERGAAD, the non-specific binding call was “binds”. YRGKASVD: the non-specific binding call is “binds”. For the variant YRGKASWD, the non-specific binding call is on record as “binds”. YRGAGALV: the non-specific binding call is on record as “binds”. Regarding YRGGSAGF, the non-specific binding call is listed as “binds”. Take YRGGSAGA: the non-specific binding call is on record as “binds”. The same measure for FRGGGSAA: “binds”; for YREKGSSV: “binds”; for YREKGSSA: “binds”. YRERSSVA: the non-specific binding call is on record as “binds”. Then YRGGDYSV, with “no binding”.

On to VRGKAAVS, for which the non-specific binding call is “binds”.

On to FRERGAGY, for which the non-specific binding call is “binds”. With FRERGAGD, the non-specific binding call is on record as “binds”. FRGGDYGS: the non-specific binding call is “binds”. Turning to YRGGAAWD, the non-specific binding call is given as “binds”.

As for YRGGAAWY, the non-specific binding call was “binds”. The same measure for YRERGAWV: “binds”; for FRGESAAA: “binds”. As to VRGGDAVY chain 1 G44D, the non-specific binding call was “no binding”.

For the variant FRGEGAAD, the non-specific binding call is “binds”. Then YRGASSGF, with “binds”. For the variant ARGGDDGA, the non-specific binding call was “no binding”. DRGGSAGD: the non-specific binding call is recorded as “no binding”. Regarding YRERGSWV, the non-specific binding call is on record as “binds”. For VRERGAGS, the non-specific binding call is reported as “binds”. On to YRGAASSD, for which the non-specific binding call is “binds”. Then DRGGDDGS, with “no binding”. Consider FRGAGSVA, for which the non-specific binding call was “binds”.

In the case of FRGAGSVD, the non-specific binding call is reported as “binds”. Consider YRERNAAA, for which the non-specific binding call was “binds”.
